A protein production outcome set (Wang et al. 2014)

Assay: label from the status in PepcDB records
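Note: failed if final PepcDB status was selected cloned or expressed and not failed if soluble or beyond.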

With “MSNNGSSPLVLWYNQLGMKDVDRVGGKNASLGEMITNLSGMGVSVPNGFATTADAFNQFLDQSGVNQRIYELLDKTDIDDVTQLAKAGAQIRQWIIDTPFQPELENAIREAYAQLSADDENASFAVRSSATAEDMPDASFAGQQETFLNVQGFDAVLVAVKHVFASLFNDRAISYRVHQGYDHRGVALSAGVQRMVRSDLASSGVMFSIDTESGFDQVVFITSAWGLGEMVVQGAVNPDEFYVHKPTLAANRPAIVRRTMGSKKIRMVYAPTQEHGKQVKIEDVPQEQRDIFSLTNEEVQELAKQAVQIEKHYGHPMDIEWAKDGHTGKLFIVQARPETVRSRGQVMERYTLHSQGKIIAEGRAIGHRIGAGPVKVIHDISEMNRIEPGDVLVTDMTDPDWEPIMKKASAIVTNRGGRTCHAAIIARELGIPAVVGCGDATERMKDGENVTVSCAEGDTGYVYAELLEFSVKSSSVETMPDLPLKVMMNVGNPDRAFDFACLPNEGVGLARLEFIINRMIGVHPRALLEFDDQEPQLQNEIREMMKGFDSPREFYVGRLTEGIATLGAAFYPKRVIVRLSDFKSNEYANLVGGERYEPDEENPMLGFRGAGRYVSDSFRDCFALECEAVKRVRNDMGLTNVEIMIPFVRTVDQAKAVVEELARQGLKRGENGLKIIMMCEIPSNALLAEQFLEYFDGFSIGSNDMTQLALGLDRDSGVVSELFDERNDAVKALLSMAIRAAKKQGKYVGICGQGPSDHEDFAAWLMEEGIDSLSLNPDTVVQTWLSLAELKK” as the sequence, how does the protein production read?
Its protein production is “failed”.

For “MEKESQTIFDKNVIEFVTVAAEFCAFLERAESMKRSTFVDTSLKILPLLYLKASMLPKCETIGDEAPETYVTEEIYEILRINLAGLMGDKDDYLDVFVQDMVYSDQPIKKSISEDLADIYQDIKDFIFVFQLGLNETMNDSLAICQENFGMLWGQKLVNTLRALHDVKYNLQDNEEEEENNEEGFYEPSEDDSCCEEGGCHCHDDECHCHEGSCHCHDDEK”, which protein production is on record?
The protein production was “failed”.

For “MLKTVHQKAGRHTRPVRAWLKLLWQRIDEDNMTTLAGNLAYVSLLSLVPLIAVVFALFAAFPMFSDVSIQLRHFIFANFMPATGDVIQRYIEQFVANSNKMTAVGACGLIVTALLLMYAIDSALNTIWRSKRTRPKVYSFAVYWMILTLGPLLAGASLAISSYLLSLRWASDLNTVIDNVLRILPLLLSWISFWLLYSIVPTTRVPNRDALVGAFVAALLFEAGKKGFALYITMFPSYQLIYGVLAVIPILFVWVYWTWCIVLLGAEITVTLGEYRKLKQAAEQEEADQP”, which protein production is on record?
The protein production was “failed”.

For “MVGTLYDKMYENFVEEVDAVDNGISQWAEGEPRYALTTTLSARVARLNPTWNHPDQDTEAGFKRAMDLVQEEFLQRLDFYQHSWLPARALVEEALAQRFQVDPSGEIVELAKGACPWKEHLYHLESGLSPPVAIFFVIYTDQAGQWRIQCVPKEPHSFQSRLPLPEPWRGLRDEALDQVSGIPGCIFVHASGFIGGHRTREGALSMARATLAQRSYLPQIS”, which protein production is on record?
The protein production was “failed”.

With “MDRYIDGFMKWMPESLFICFILTFLVVTMSVLMTDSPFIGTEKTGGIIYGWVNGFWGLLSFAMQMTILLATGNAVASSPPAHKMFKSLAKLPQTRTQIFIFSIVVGSIFGFLHWGLGMMVAIVFGKELLVQARQKGIKVHTPLFVATLFFTFLPATSGLSGAAVLYSATPDYLRNSVADAYKQVVPESVPLTESVLNLPFISLLVVCMLVPLCFALLAHPKDETKIMELDDEIYHHSLDTASHVVIARNTPAEKMNASRLVMYLVGGAIVSYSLYHFSVVGLSGLDLNCFNFLFLGLGLLLCGQQGPEYYGSLFKDGVMSSWGLVLQFPFYAGIFGIIQSTGLGLEISHFFVAISNGTTWPVFAYLYSALLNIAVPSGGSKFVIEAPYIVPATIEVGNDLGKILQAYQLGDATTNLIVPFWALSYLSNFKLKFNQIVAYTIPCVLVVTGIAIIYLFVF” as the sequence, how does the protein production read?
Its protein production is “failed”.

For “MSHDRSVNVSHDAVIAKPERGTMLQSFSPRSHGSKGYSLPQDSEENRGSVGQSAGQSSTSVVDQVRSPADDAGVTSSSTICPAPVCRQFWKAGSYNDELSSKSQQPNGKNYLHVHPMFLHSNATSHKWAFGAVAELLDNAVDEIQNGATFVIVDKTTNPRDGATALLIQDDGGGMDPQAMRHCMGFGFSDKKSDSAIGRYGNGFKTSTMRLGADVIVFSRHSKNQTLTQSIGLLSYTYLTRTGHDRIVVPILDYEFNASAGEFKTLQDREHFISSLSILLEWSPFSTEAELLQQFDDVGPHGTKVIIYNMWLNSDAKLELDFDSVAEDILIEGSIKKTGSKIVNDHIASRFSYSLRVYLSILYLRIPETFKIILRGKVVEHHNVADDLMHPQYILYKPQAAGSEEALVVTTIGFLKEAPKVNLHGFCVYHKNRLIMPFWQVINYSSSRGRGVVGVLEANFVEPTHNKQDFEKTVLLQKLENRLKEMTVEYWSCHCVLIGYQVNKKPRLQIPQKVQPAGRQALSPPPGFQAVFPQGNTTSLPRVSTQPVLLEKRKEHPDSVASAALKRKVGNDDFTVPGHIRVEQFIHGSASQSQDIETVKLMEENKKLRAKCLDRKVRSQNLEVKAMNLRSELENYKSEYERLMVELQALDLVKDEHRRNVNT”, which protein production is on record?
Its protein production is “failed”.

Which protein production does the source give for “MKFDVIIIGSGLAGLTAGIRLAEAGKSCAIISNGQSALHFSSGSLDLLTHLPDGTPVSHPKQALSTLAQQAPEHPYSRIGEANVTQLIEQAQTLLSTTRNLDYKGNGDENHYRITPVGRSRMSWMSPQRVPTYSVNQPFPWKKIAVVGIEGFLDFQPQFASSTLNEQGIEAIPYHIHLPLLDRLRDNPSEFRAINIARYLDKPENTQALAEELIKHIDNSVEAIVLPACIGLDEEAPVNLLQECVGKPICLLPTLPPSLLGIRLHQALKLRFQQAGGLIMPGDRAEEADLVGNKVVGIHTRNHTDIPIRSEHVVLATGSFFNNGLIAEFDRIYEPLMELDLLESLPRNEWTQVNVFAKQPYMRFGVNTDSQLRPLKYGEALDNVYAVGALLGGFDPLNEGCGAGVSMISALYAAQQILQSDKSQHTTSAAVEAVL” here?
The protein production was “not failed”.

Which protein production does the source give for “WGLSVERSTYFLAPADRHYLADYARQAEDAWRREGAAGAERFRKELSAKEDTWVALVGPHLESLGSTPLSAEESSHLTFMRKLDWPMSRRLQDELPYVSIEFPGHPEQGRLVIQLPERLLPG” here?
The protein production was “not failed”.

Which protein production does the source give for “MVLLEKLWDDVVAGPQPDRGLGRLRKITTQPINIRDIGEGSSSKVVMHRSLTMPAAVSPGTPTTPTTPTTPRKDNVWRSVFNPGSNLATRAIGSNIFDKPTHPNSPSVYDWLYSGDSRSQHR” here?
Its protein production is “failed”.

For “MQEEWNPLMKNRCIIWLVTGICLTVIFQFPLKSVASSADKYANFAELAEHETEGEDYQIEYTDMGTELLILSPHGGGIEGGVSELVRAFSADYSTYLFEGIKPSQNWDLHITSNHFDEPQALKAVKEHSYVLAFHGYHDIVEHTLVGGTDTGGAKAIVRALLNKGFSAELVSPSHRLAGGNPENINNQCKTGQSIQLEISTPQREAFFSEFGLWTRASSKNETFQAYVSAVKEVLETRYK”, which protein production is on record?
The protein production was “failed”.

For “MGKVTIIAGGIKTESRLNGLIQLAANQLANNGTEVKIIEVHKIQAEALVTADFTHPDIHLANSEIESSSGVIIATPIFKAAYSGVLKAYLDLLPLKALKGKVVLPLGLGGSNGHLLALQYALDPVLKELGAEIILKGQFTVDKQIERLGNGLYEIEITAKERLDSALNQFISLLNQNSVEVLEHHHHHH”, which protein production is on record?
Its protein production is “not failed”.

With “MKLSCVIVSHNMKNYIGRCIDSVRTALADIRSLVGEAEIIVVDRGSTDGTANAARTAYADVTIVDVPFDAGWATAANKGACAATGETLLFVSPEVELLSGGLPRLLEHLETNPACAIAGGAVVSTSGALLHGPARFPGLLGKLAALTGLGSRFPRTMLDWTRYGGRNLDLPLEVDSVSFDYAVVKAAAFCKLGRFDARFHTAFADTDLCRRASRTMLPRPTVAFVPQARARAQDNFVLRDEVQAFDLHGTAVVRGRVRCEMLYVWKNYCILTSLANTTLELVGQACRYAMGLLPVIGCDKTARHSAAVLKETAQAALDTQLGSQYPTTPWLEHHHHHH” as the sequence, how does the protein production read?
The protein production was “failed”.

Which protein production does the source give for “KRYIRKEAADALKTMFDAAKKEGYELAAVSGYRSYDRQKVIFDNEVSLKGERKAKEAVAYPGESEHQTGLAMDISSRSNGFELNEAFGSTADGKWVQDNAYKYGFIIRYPKNKEDITKYEYEPWHLRYVGK” here?
Its protein production is “not failed”.
